Measurements published in the nanobody polyreactivity screen of Harvey et al. (2022).

Experiment: yeast display, Sf9 membrane polyspecificity reagent, FACS + sequencing; frameworks hold sequencing errors
How it was run: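 Galactose induction of a Saccharomyces cerevisiae BJ5465 synthetic nanobody display library ran 36–48 hours. The cells were then stained for 1 hour at 4 °C with 10% biotinylated, detergent-solubilized Sf9 membrane reagent, pulled down on streptavidin microbeads and FACS-sorted into low and high (top ~1%) gates on expression and reagent-binding fluorescence. Labels for polyreactivity follow the gate of origin.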

Sequence	polyreactivity (PSR sort gate)
QVQLVESGGGLVQAGGSLRLSCAASGRIFFIYVMGWYRQAPGKERELVAGITRGGSTNYADSVKGRFTISRDNAKNTVYLQMNSLKPEDTAVYYCAAAVLSYRHAHAGYYYGKGDYWGQGTQVTVSS	high polyreactivity
QVQLVESGGGLVQAGGSLRLSCAASGRIFFNAMGWYRQAPGKEREFVAAIRTSGGTTYYADSVKGRFTISRDNAKNTVYLQMNSLKPEDTAVYYCAAWRWYYPVRNRAQYVRGDYWGQGTQVTVSS	high polyreactivity
QVQLVESGGGLVQAGGSLRLSCAASGRIFFPNAMGWYRQAPGKERELVAAITSGSSTYYADSVKGRFTISRDNAKNTVYLQMNSLKPEDTAVYYCAARGRRGEAYRSVYYWGQGTQVTVSS	high polyreactivity
QVQLVESGGGLVQAGGSLRLSCAASGRIFFRNAMGWYRQAPGKERELVAVINTGGSTNYADSVKGRFTISRDNAKNTVFLQMNSLKPEDTAVYYCAVDRASRRTYNQYGFWGQGTQVTVSS	high polyreactivity
QVQLVESGGGLVQAGGSLRLSCAASGRIFFRNVMGWYRQAPGKERELVATITSGGRTYYADSVKGRFTISRDNAKNTVYLQMNSLKPEDTAVYYCAAKRYLHRREYWGQGTQVTVSS	high polyreactivity
QVQLVESGGGLVQAGGSLRLSCAASGRIFFTKAMGWYRQAPGKERELVAAISKSGARTYYADSVKGRFTISRDNAKNTVYLQMNSLKPEDTAVYYCAADVSVSGYYYWGQGTQVTVSS	high polyreactivity
QVQLVESGGGLVQAGGSLRLSCAASGRIFFTNAMGWYRQAPGKEREFVAGISFSGDGRTYYADSVKGRFTISRDNAKNTVYLQMNSLKPEDTAVYYCAAPHRSRTHELDYWGQGTQVTVSS	low polyreactivity
QVQLVESGGGLVQAGGSLRLSCAASGRIFFTNAMGWYRQAPGKERELVATISSSDGSTYYADSVTGRFTISRDNAKNTVYLQMNSLKPEDTAVYYCAARYRSTFYNTYDRVYWGQGTQVTVSS	high polyreactivity
QVQLVESGGGLVQAGGSLRLSCAASGRIFFTYAMGWYRQAPGKERELVASITGSGGSTYYADSVKGRFTISRDNAKNTVYLQMNSLKPEDTAVYYCAAALFRRQLYRKFYYWGQGTQVTVSS	low polyreactivity
QVQLVESGGGLVQAGGSLRLSCAASGRIFFVNTMGWYRQAPGNERELVATLSWSGGSTYYADSVKGRFTISRDNAKNTVYLQMNSLKPEDTAVYYCAAVGYTTYRRYDYWGQGTQVTVSS	low polyreactivity
QVQLVESGGGLVQAGGSLRLSCAASGRIFFWYARGWYRQAPGKEWELVAGITSGGSTNYADSVKGRFTISRDNAKNTVYLQMNSLKPEDTAVYYCAKRSYRTHTYDYWGQGTQVTVSS	low polyreactivity
QVQLVESGGGLVQAGGSLRLSCAASGRIFFYNAMGWYRQAPGKERELVATINWSGGSTYYADSVKGRFTISRDYAKNTVYLQMNSLKPEDTAVYYCNALRASTTALWGGYWGQGTQVTVSS	high polyreactivity
QVQLVESGGGLVQAGGSLRLSCAASGRIFFYNVMGWYRQAPGKERELVASIRWSGSGTYYADSVKGRFTISRDDAKNTVYLQMNCLKPEETAVYYCAVLGRVGYGVYPVDYWGQGTQVTVSS	high polyreactivity
QVQLVESGGGLVQAGGSLRLSCAASGRIFFYYAMGWYRQAPGTERELVAAISKSGGRTYYADSVKGRFTISRDNAKNTVYLQMNSLKPEDTAVYYCAAYSAHDSDYWGQGTQVTVSS	high polyreactivity
QVQLVESGGGLVQAGGSLRLSCAASGRIFGANAMGWYRQAPGKERELVAAIDDGVSTNYADSVKGRFTISRDNAKNTVYLQMNSLKPEDTAVYYCAKRSFVGGRGRDSDYWGQGTQVTVSS	low polyreactivity
QVQLVESGGGLVQAGGSLRLSCAASGRIFGANAMGWYRQAPGKERELVAAISGSGGRTYYADSVKGRFTISRDNAKNTVYLQMNSLKPEDTAVYYCAAGRPTYSRYFGFEYWGQGTQVTVSS	high polyreactivity
QVQLVESGGGLVQAGGSLRLSCAASGRIFGAYAMGWYRQAPGKERELVAAISSGGSTNYADSVKGRFTISRDNAKNTVYLQMNSLKPEDTAVYYCAAERLYSWYYYKYNSEFYYWGQGTQVTVSS	low polyreactivity
QVQLVESGGGLVQAGGSLRLSCAASGRIFGAYAMGWYRQAPGKERELVAAITSRGGNTYYADSVKGRFTISRDNAKNTVYLQMNSLKPEDTAVYYCAARHDKLRQYYVGQSAFDYWGQGTQVTVSS	low polyreactivity
QVQLVESGGGLVQAGGSLRLSCAASGRIFGAYTMGWYRQAPGKERELVAVISSRGTDTYYADSVKGRFTISRDNAKNTVYLQMNSLKPEDTAVYYCAKRWWYTTSPRRSGDYWGQGTQVTVSS	high polyreactivity
QVQLVESGGGLVQAGGSLRLSCAASGRIFGDYAMGWYRKAPGKERELLAAISWSDGSTYYADSVKGRFTISRDNAKNTVYLQMNSLKPEDTAVYYCAAYGWGYRYVDVVVSDFYYWGQGTQVTVSS	low polyreactivity
QVQLVESGGGLVQAGGSLRLSCAASGRIFGDYAMGWYRQAPGKERELVADITWSGGSTYYADSVKGRVTISRDNAKHTVYLQMNSLKPEDTAVYYCNADVWFYYTFDYWGQGTQVTVSS	low polyreactivity
QVQLVESGGGLVQAGGSLRLSCAASGRIFGFNAMGWYRQATGKERELVAAISWRGGSTYYADSVKGRFTISRDNAKNTVYLQMNSLKPEDTAVYYCAAGRYLRSGFGEGYYWGQGTQVTVSS	high polyreactivity

Sequence	polyreactivity (PSR sort gate)
QVQLVESGGGLVQAGGSLRLSCAASGRIFGFYALGWYRQAPGKEREFVASISVRGASTYADSVKGRFTISRDNAKNTVYLQMYSLKPEDTAVYYCNKAVANDDGLEYWGQGTQVTVSS	high polyreactivity
QVQLVESGGGLVQAGGSLRLSCAASGRIFGFYAMGWYRQAPGKERELVAAISSRGGRTYYADSVKGRFTISRDNAKNTVYLQMNSLKPEDTAVYYCAAGDGKYGRDGDYWGQGTQVTVSS	high polyreactivity
QVQLVESGGGLVQAGGSLRLSCAASGRIFGFYAMGWYRQAPGKERELVARITLSGGRTYYADSVKGRFTISRDNAKNTVYLQMNSLKPEDTAVYYCAADSIGRLWGYGYWGQGTQVTVSS	high polyreactivity
QVQLVESGGGLVQAGGSLRLSCAASGRIFGFYAMGWYRQAPGKERELVAVISNGGGSTYYADSVKGRFTISRDNAKNTVYLQMTSLKPEDTAVYYCAVALKYPRRYYYWGQGTQVTVSS	high polyreactivity
QVQLVESGGGLVQAGGSLRLSCAASGRIFGFYARGWYRQAPGKEREFVADITSGGSTNYADSVKGRFTISRDNAKNTVYLQMNSLKPEDTAVYYCNALSYVWYRYPGNWDEDDYWGQGTQVTVSS	low polyreactivity
QVQLVESGGGLVQAGGSLRLSCAASGRIFGGYAMGWYRQAPGKERELVAAIDLSGGSTYYADSVKGRFTISRDNAKNTVYLQMNSLKPEDNAVYYCAADAYPVYYYLSTYDPWYDYWGQGTQVTVSS	low polyreactivity
QVQLVESGGGLVQAGGSLRLSCAASGRIFGGYAMGWYRQAPGKERELVAAISGSGGRTYYADSVKGRFTISRDNAKNTVYLQMNSLKPEDTAVYYCNKGYVYGHEYWGQGTQVTVSS	high polyreactivity
QVQLVESGGGLVQAGGSLRLSCAASGRIFGGYAMGWYRQAPGKERELVAVISRGGSITDYADSVKGRFTISRDNAKNTVYLQMNSLKPEDTAVYYCAARICGGSYWGQGTQVTVSS	high polyreactivity
QVQLVESGGGLVQAGGSLRLSCAASGRIFGGYAMGWYRQAPGKEWEVVAAIRDSGRTYYADSVKGRFTISRDNAKNTVYLQMNSLKPEDTAVYYCAADAHSSYSPFRWYDYWGQGTQVTVSS	low polyreactivity
QVQLVESGGGLVQAGGSLRLSCAASGRIFGGYTMGWYRQAPGKERELVAAITGSGGRTYYADSVKGRFTISRDNAKNTVYLQMNSLKPEDTAVYYCNTVYRYRYYWGQGTQVTVSS	high polyreactivity
QVQLVESGGGLVQAGGSLRLSCAASGRIFGGYVMGWYRQAPGKEREFVAAISGRGTSTSYADSVKGRFTISRDNAKNTVYVQMNSLKPEDTAVYYCAARPKSDYSNGGNYWGQGTQVTVSS	high polyreactivity
QVQLVESGGGLVQAGGSLRLSCAASGRIFGHYAMGWYRQAPGKERELVAAIRYSAGRTYYAGSVKGRFTISRDNAKNTVYLQMNSLKPEDTAVYYCAKTSRYLTGGGDYWGQGTQVTVSS	high polyreactivity
QVQLVESGGGLVQAGGSLRLSCAASGRIFGINAMGWYRQAPGKERELVAAITWSGDGTYYADSVKGRFTISRDNAKNTVYLQMNSLKPEDTAVYYCARYDYWGHGTQVTVSS	low polyreactivity
QVQLVESGGGLVQAGGSLRLSCAASGRIFGINAMGWYRQGPGKERELVAASRSSDVSTYNADSVKGRFTISRDNAKNTVYLQMNSLKPEDTAVYYCAAAYRTQIYRNEYWGQGTQVTVSS	low polyreactivity
QVQLVESGGGLVQAGGSLRLSCAASGRIFGINVMGWYRQAPGKERELVARITGRGGRTYYADSVKGRFTISRDNAKNTVYLQMNSLKPEDTAVYYCNAQPSTTGTYDYWGQGTQVTVSS	high polyreactivity
QVQLVESGGGLVQAGGSLRLSCAASGRIFGIYAMGWYRQAPGKERELVAAISYSGGSTYYADSVKGRFTISRDNAKNTVYLQMNSLNPEDTAVYYCNADYYASYYPYYSIRLDYWGQGTQVTVSS	low polyreactivity
QVQLVESGGGLVQAGGSLRLSCAASGRIFGIYAMGWYRQAPGKERELVAAISYSGGSTYYADSVKGRFTISRDNAKNTVYLQMNSMKPEDTAVYYCNADYYASYYPYYSIRLDYWGQGTQVTVSS	low polyreactivity
QVQLVESGGGLVQAGGSLRLSCAASGRIFGIYAMGWYRQAPGKERELVATITDSDDSTYYADSVKGRFTISRDNAKNTVNLQMNSLKPEDTAVYYCATAFSYGGGAYDYWGQGTKVTVSS	low polyreactivity
QVQLVESGGGLVQAGGSLRLSCAASGRIFGKYAMGWYRQAPWKERELVATISLSGVRTYYADSVKGRFTISRDNAKNTVYLQMNSLKPEDTAVYYCAAGYSSNGDYWGQGTQVTVSS	low polyreactivity
QVQLVESGGGLVQAGGSLRLSCAASGRIFGKYVMGWYRQAPGKERELVAAISSGGSTYADSVKGRFTISRDNAKNTFYLQMNCLKPEDTAVYYCNTRPRLYGYRPSQYTYDYWGQGTQVTVSS	high polyreactivity
QVQLVESGGGLVQAGGSLRLSCAASGRIFGLNAMGWYRQAPGKEREIVAAIRWRGGSTYYADSVKGLFTISRDNANNNVYLLMNSLKPEDTAVYYCAADRNLGVSRYGYWGQGTQVNVSS	high polyreactivity
